Results published in US20210380680A1 (ZLLP, published 2021).
Where a chain is given by its changes, count along the chain named. Numbers in names are those of the source. Where two headings read alike, the source gives them in different places. Each block holds one binder with its values, some of them ahead of it.

Assays:
[1] = biological target: T1, human Claudin 18.2 (CLDN18.2) (human, UniProt P56856-2 1-261); experiment: cell-based or functional assay
[2] = biological target: T1, human Claudin 18.2 (CLDN18.2); experiment: FACS on CHO-CLDN18.2 cells
[3] = biological target: T1, human Claudin 18.2 (CLDN18.2); experiment: cell-based or functional assay; remark: listed apart in the source
[4] = biological target: T1, human Claudin 18.2 (CLDN18.2); experiment: FACS on CHO-CLDN18.2 cells; remark: listed apart in the source
[5] = biological target: T1, human Claudin 18.2 (CLDN18.2); experiment: FACS on CHO-CLDN18.2 cells; remark: listed apart in the source
[6] = biological target: T1, human Claudin 18.2 (CLDN18.2); experiment: FACS Exp. 1, MFI ratio CHO-18.2 over CHO-18.1
[7] = biological target: T2, CLDN18.2 endogenously expressed on SNU620 gastric cancer cells (UniProt P56856-2 1-261, limits assumed); experiment: FACS Exp. 3, SNU620 cells
T2 construct: whole, on cells; also called SU620

- ADCC EC50, NUGC4-CLDN18.2, PBMC [1]: 8.17 nM
- EC50 [2]: 3.96 nM
- % ADCC @ 6.67 nM, NCI-N87-CLDN18.2, FcR-TANK [3]: 9.1%
- ADCC EC50, NCI-N87-CLDN18.2, FcR-TANK [3]: 0.26 nM
B1: 364D1A7-H1L5 (antibody, V domains shown)
VH: EVQLVESGGGLVQPGGSLRLSCAASGFTFSSFGMHWVRQAPGKGLEWVSYISSGSGSIYYADTVKGRFTISRDNAKNSLYLQMNSLRAEDTAVYYCATSYYYGNALEYWGQGTTVTVSS
VL: DVVLTQSPDSLAVSLGERATISCKSSQSLFNVGNQKNYLTWYQQKPGQTPTLLIYWASTRKSGVPDRFTGSGSGTDFTLTISSLQAEDVAVYYCQNVYSYPLTFGAGTKVEIK
notes: humanized IgG; constant regions not specified
- % specific cytotoxicity @ 6.67 nM, NUGC4-CLDN18.2, PBMC [1]: 27.5%

- ADCC EC50, NUGC4-CLDN18.2, PBMC [1]: 7.58 nM
- EC50 [2]: 4.12 nM
- % ADCC @ 6.67 nM, NCI-N87-CLDN18.2, FcR-TANK [3]: 9.3%
- ADCC EC50, NCI-N87-CLDN18.2, FcR-TANK [3]: 0.31 nM
B2: 364D1A7-H4L1 (antibody, V domains shown)
VH: B1 VH with E1D, S49A, I70L, A75P, S78T
VL: B1 VL with V2I, L4M, S22N, T49P, T51K, T69S, A106G
notes: humanized IgG; constant regions not specified; also called 364D1A7-H41L
- % specific cytotoxicity @ 6.67 nM, NUGC4-CLDN18.2, PBMC [1]: 26.4%

- EC50 [2]: 3.85 nM
B3: 364D1A7-H4L4 (antibody, V domains shown)
VH: B1 VH with E1D, S49A, I70L, A75P, S78T
VL: B1 VL with T69S, A106G
notes: as for B1

- ADCC EC50, NUGC4-CLDN18.2, PBMC [1]: 9.69 nM
- EC50 [2]: 6.14 nM
- % ADCC @ 6.67 nM, NCI-N87-CLDN18.2, FcR-TANK [3]: 9.4%
- ADCC EC50, NCI-N87-CLDN18.2, FcR-TANK [3]: 0.22 nM
B4: 364D1A7-H2L2 (antibody, V domains shown)
VH: B1 VH with S49A, A75P
VL: B1 VL with V2I, S22N, T51K, T69S, A106G
notes: as for B1
- % specific cytotoxicity @ 6.67 nM, NUGC4-CLDN18.2, PBMC [1]: 26.6%

- ADCC EC50, NUGC4-CLDN18.2, PBMC [1]: 6.4 nM
- EC50 [2]: 4.38 nM
- % ADCC @ 6.67 nM, NCI-N87-CLDN18.2, FcR-TANK [3]: 12%
- ADCC EC50, NCI-N87-CLDN18.2, FcR-TANK [3]: 0.34 nM
B5: 364D1A7-H4L5 (antibody, V domains shown)
VH: B1 VH with E1D, S49A, I70L, A75P, S78T
VL: B1 VL
notes: as for B1
- % specific cytotoxicity @ 6.67 nM, NUGC4-CLDN18.2, PBMC [1]: 26.4%

- EC50 [2]: 4.53 nM
B6: 364D1A7-H3L5 (antibody, V domains shown)
VH: B1 VH with S49A, I70L, A75P
VL: B1 VL
notes: as for B1

- EC50 [2]: 3.54 nM
B7: 364D1A7-H3L3 (antibody, V domains shown)
VH: B1 VH with S49A, I70L, A75P
VL: B1 VL with S22N, T51K, T69S, A106G
notes: as for B1

- EC50 [2]: 4.78 nM
B8: 364D1A7-H3L4 (antibody, V domains shown)
VH: B1 VH with S49A, I70L, A75P
VL: B1 VL with T69S, A106G
notes: as for B1

- EC50 [2]: 4.56 nM
B9: 364D1A7-H4L3 (antibody, V domains shown)
VH: B1 VH with E1D, S49A, I70L, A75P, S78T
VL: B1 VL with S22N, T51K, T69S, A106G
notes: as for B1

- EC50 [2]: 4.51 nM
B10: 364D1A7-H4L2 (antibody, V domains shown)
VH: B1 VH with E1D, S49A, I70L, A75P, S78T
VL: B1 VL with V2I, S22N, T51K, T69S, A106G
notes: as for B1

- EC50 [4]: 2.18 nM
B11: 413H9F8-H1L2 (antibody, V domains shown)
VH: EVQLVESGGGLVQPGGSLRLSCAASGFTFSSFGMHWVRQAPGKGLEWVSYISSGSSPIYYVDKLKGRFTISRDNAKNSLYLQMNSLRAEDTAVYYCARAGYAVRNALDYWGQGTLVTVSS
VL: DIVMTQSPDSLAVSLGERATINCKSSQSLLNVGNQKNYLAWYQQKPGQPPKLLIYGASTRESGVPDRFSGSGSGTDFTLTISSLQAEDVAVYFCQNDLFYPLTFGGGTKVEIK
notes: as for B1

- EC50 [5]: 3.69 nM
B12: 413H9F8-cp10 (antibody, V domains shown)
VH: B11 VH
VL: DIVMTQSPPTLSLSPGERVTLSCKSSQSLLNVGNQKNYLAWYQQKPGQAPKLLIYGASTRESGIPDRFSGSGSGTDFTLTISSLQPEDFAVYFCQNDLFYPLTFGGGTKVEIK
notes: as for B1

- EC50 [5]: 2.32 nM
B13: 413H9F8-cp6 (antibody, V domains shown)
VH: B11 VH with E1D, S49A, I70V
VL: B12 VL with K51R, F93Y
notes: as for B1

- EC50 [5]: 2.21 nM
B14: 413H9F8-cp9 (antibody, V domains shown)
VH: B11 VH with E1D, S49A, I70V
VL: B12 VL with F93Y
notes: as for B1

- EC50 [5]: 2.28 nM
B15: 413H9F8-cp4 (antibody, V domains shown)
VH: B11 VH
VL: B12 VL with K51R, F93Y
notes: as for B1

- EC50 [5]: 2.61 nM
B16: 413H9F8-cp11 (antibody, V domains shown)
VH: B11 VH with E1D, S49A
VL: B12 VL
notes: humanized IgG; constant regions not specified; also called 413H9F8-cp811

- ADCC EC50, NUGC4-CLDN18.2, PBMC [1]: 6.09 nM
- EC50 [4]: 2.74 nM
- % ADCC @ 6.67 nM, NCI-N87-CLDN18.2, FcR-TANK [3]: 16%
- ADCC EC50, NCI-N87-CLDN18.2, FcR-TANK [3]: 0.35 nM
B17: 413H9F8-H3L4 (antibody, V domains shown)
VH: B11 VH with S49A, I70V
VL: B11 VL with N22S, S69I, G106A
notes: as for B1
- % specific cytotoxicity @ 6.67 nM, NUGC4-CLDN18.2, PBMC [1]: 28.7%

- EC50 [4]: 3.32 nM
B18: 413H9F8-H1L4 (antibody, V domains shown)
VH: B11 VH
VL: B11 VL with N22S, S69I, G106A
notes: as for B1

- EC50 [4]: 2.8 nM
B19: 413H9F8-H2L4 (antibody, V domains shown)
VH: B11 VH with S49A
VL: B11 VL with N22S, S69I, G106A
notes: as for B1

- EC50 [4]: 2.34 nM
B20: 413H9F8-H4L4 (antibody, V domains shown)
VH: B11 VH with S49A, I70V, N84T
VL: B11 VL with N22S, S69I, G106A
notes: as for B1

- EC50 [4]: 2.42 nM
B21: 413H9F8-H3L1 (antibody, V domains shown)
VH: B11 VH with S49A, I70V
VL: B11 VL with F93Y
notes: as for B1

- EC50 [4]: 2.69 nM
B22: 413H9F8-H4L1 (antibody, V domains shown)
VH: B11 VH with S49A, I70V, N84T
VL: B11 VL with F93Y
notes: as for B1

- EC50 [4]: 2.49 nM
B23: 413H9F8-H2L3 (antibody, V domains shown)
VH: B11 VH with S49A
VL: B11 VL with S69I
notes: as for B1

- ADCC EC50, NUGC4-CLDN18.2, PBMC [1]: 7.01 nM
- EC50 [4]: 2.62 nM
- % ADCC @ 6.67 nM, NCI-N87-CLDN18.2, FcR-TANK [3]: 15.4%
- ADCC EC50, NCI-N87-CLDN18.2, FcR-TANK [3]: 0.47 nM
B24: 413H9F8-H4L3 (antibody, V domains shown)
VH: B11 VH with S49A, I70V, N84T
VL: B11 VL with S69I
notes: as for B1
- % specific cytotoxicity @ 6.67 nM, NUGC4-CLDN18.2, PBMC [1]: 27.8%

- EC50 [4]: 2.24 nM
B25: 413H9F8-H3L3 (antibody, V domains shown)
VH: B11 VH with S49A, I70V
VL: B11 VL with S69I
notes: as for B1

- EC50 [4]: 2.14 nM
B26: 413H9F8-H3L2 (antibody, V domains shown)
VH: B11 VH with S49A, I70V
VL: B11 VL
notes: as for B1

- EC50 [4]: 2.45 nM
B27: 413H9F8-H4L2 (antibody, V domains shown)
VH: B11 VH with S49A, I70V, N84T
VL: B11 VL
notes: as for B1

- MFI_CHO-18.2/CHO-18.1 (@30 ug/ml) [6]: 521
- MFI_SNU620 (@30 ug/ml) [7]: 1060 MFI
B28: hz282-2 (antibody, V domains shown)
VH: QVQLQESGPGLVKPSETLSLTCTVSGFSLTSYNVYWIRQPPGKGLEWIGVIWNTGATRYNSALKSRVTISKDTSKNQVSLKLSSVTAADTAVYYCARDSAMPAIPFAYWGQGTLVTVSS
VL: DIVMTQSPDSLAVSLGERATINCKSSQSLFGSVRQKNYLAWYQQKPGQPPKLLIYLASTRESGVPDRFSGSGSGTDFTLTISSLQAEDVAVYYCQQYYDIPWTFGGGTKVEIK
notes: as for B1

- MFI_CHO-18.2/CHO-18.1 (@30 ug/ml) [6]: 798
- MFI_SNU620 (@30 ug/ml) [7]: 1220 MFI
B29: hz282-14 (antibody, V domains shown)
VH: B28 VH
VL: DIQMTQSPSSLSASVGDRVTITCKSSQSLFGSVRQKNYLAWYQQKPGKSPKLLIYLASTRESGVPDRFSGSGSGTDFTLTISSLQPEDFAKYYCQQYYDIPWTFGGGTKVEIK
notes: as for B1

- MFI_CHO-18.2/CHO-18.1 (@30 ug/ml) [6]: 781
- MFI_SNU620 (@30 ug/ml) [7]: 1210 MFI
B30: hz282-18 (antibody, V domains shown)
VH: B28 VH
VL: B29 VL with Q3V, T22N
notes: as for B1

- MFI_CHO-18.2/CHO-18.1 (@30 ug/ml) [6]: 550
- MFI_SNU620 (@30 ug/ml) [7]: 1280 MFI
B31: hz282-16 (antibody, V domains shown)
VH: B28 VH with S25A, N76S
VL: B29 VL
notes: as for B1

- MFI_CHO-18.2/CHO-18.1 (@30 ug/ml) [6]: 521
- MFI_SNU620 (@30 ug/ml) [7]: 1290 MFI
B32: hz282-6 (antibody, V domains shown)
VH: B28 VH
VL: B28 VL with P49S, V91K
notes: as for B1

- MFI_CHO-18.2/CHO-18.1 (@30 ug/ml) [6]: 624
- MFI_SNU620 (@30 ug/ml) [7]: 1250 MFI
B33: hz282-7 (antibody, V domains shown)
VH: B28 VH with N76S
VL: B28 VL with P49S, V91K
notes: as for B1
